Measured values from IntAct's records for PubMed 17485491.

B1: Serine/threonine-protein kinase D1 (Mus musculus), Q62101 (parent)
chain: MSVPPLLRPPSPLLPAAAAVAAAAAALVPGSGPAPFPAPGAAPAGGISFHLQIGLSREPVLLLQDSSGDYSLAHVREMACSIVDQKFPECGFYGLYDKILLFRHDPASDNILQLVKIASDIQEGDLIEVVLSASATFEDFQIRPHALFVHSYRAPAFCDHCGEMLWGLVRQGLKCEGCGLNYHKRCAFKIPNNCSGVRRRRLSNVSLTGLGTVRTASAEFSTSVPDEPLLSPVSPGFEQKSPSESFIGREKRSNSQSYIGRPIQLDKLLMSKVKVPHTFVIHSYTRPTVCQFCKKLLKGLFRQGLQCKDCRFNCHKRCAPKVPNNCLGEVTINGELLSPGAESDVVMEEGSDDNDSERNSGLMDDMDEAMVQDTEMALAEGQSGGAEMQDPDADQEDSNRTISPSTSNNIPLMRVVQSVKHTKRRSSTVMKEGWMVHYTSKDTLRKRHYWRLDSKCITLFQNDTGSRYYKEIPLSEILCLEPAKPSALTPVGATPHCFEITTANVVYYVGENVVNPSSSPPNNSVLPSGIGPDVARMWEVAIQHALMPVIPKGSSVGSGSNSHKDISVSISVSNCQIQENVDISTVYQIFPDEVLGSGQFGIVYGGKHRKTGRDVAIKIIDKLRFPTKQESQLRNEVAILQNLHHPGVVNLECMFETPERVFVVMEKLHGDMLEMILSSEKGRLPEHITKFLITQILVALRHLHFKNIVHCDLKPENVLLASADPFPQVKLCDFGFARIIGEKSFRRSVVGTPAYLAPEVLRNKGYNRSLDMWSVGVIIYVSLSGTFPFNEDEDIHDQIQNAAFMYPPNPWKEISHEAIDLINNLLQVKMRKRYSVDKTLSHPWLQDYQTWLDLRELECRIGERYITHESDDSRWEQYAGEQGLQYPAHLISLSASHSDSPEAEEREMKALSERVSIL

Variants of: B1
Conditions: with itb3_human ITGB3, P05106
itb3_human ITGB3, P05106, sequence (P05106 whole entry): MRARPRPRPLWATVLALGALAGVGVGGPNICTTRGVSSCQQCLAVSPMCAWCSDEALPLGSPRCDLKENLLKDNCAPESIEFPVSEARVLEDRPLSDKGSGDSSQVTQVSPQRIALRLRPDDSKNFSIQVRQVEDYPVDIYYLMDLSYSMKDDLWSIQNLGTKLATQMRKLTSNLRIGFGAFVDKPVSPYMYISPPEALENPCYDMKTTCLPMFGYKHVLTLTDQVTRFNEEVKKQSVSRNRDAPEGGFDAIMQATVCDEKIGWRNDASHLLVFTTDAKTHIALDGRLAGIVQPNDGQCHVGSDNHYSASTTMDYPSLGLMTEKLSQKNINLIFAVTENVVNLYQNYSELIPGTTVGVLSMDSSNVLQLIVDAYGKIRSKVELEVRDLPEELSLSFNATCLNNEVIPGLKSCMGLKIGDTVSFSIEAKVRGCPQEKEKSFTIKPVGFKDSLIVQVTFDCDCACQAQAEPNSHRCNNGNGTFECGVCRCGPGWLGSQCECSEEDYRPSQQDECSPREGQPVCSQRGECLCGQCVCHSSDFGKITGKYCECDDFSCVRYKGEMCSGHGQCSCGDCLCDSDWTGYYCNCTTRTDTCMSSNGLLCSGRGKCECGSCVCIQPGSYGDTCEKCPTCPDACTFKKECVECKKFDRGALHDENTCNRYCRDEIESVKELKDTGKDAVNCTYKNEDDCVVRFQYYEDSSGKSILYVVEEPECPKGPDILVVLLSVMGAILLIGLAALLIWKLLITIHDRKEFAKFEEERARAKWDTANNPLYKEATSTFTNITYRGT

Row | effect of a mutation on the interaction | Variant
1 | decreasing interaction | S916A

Variants of: B1
Conditions: with itb3_human ITGB3, P05106
Remark: another data set of the same source

Row | effect of a mutation on the interaction | Variant
2 | disrupting interaction | S916A
